Experimental data: the supplement of paper PMC7125110
± gives the standard error. This sample holds only a part of the variants without activity.

B1: glmS ribozyme (parent)
chain: AUAAAAGCGCCAGAACUACAGAAAUGUAGUUGACGAGGAGGAGGUUUAUCGAAUUUUCGGCGGAUGCCUCCAAA

Variants of: B1
Test: self-cleavage kobs at 2500 uM GlcN6P; higher = faster cleavage; RNA array
Conditions: with glucosamine-6-phosphate
Summary of the method: (§1)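 kobs was derived by fitting per-tile medians to one- or two-exponential decays after normalising signals to baseline and to non-cleaving reference variants. Those signals came from barcoded ribozyme variants transcribed in situ by E. coli RNA polymerase on sequenced MiSeq chips, followed through a hybridised Cy3 probe at 37 °C and imaged over ~14 h. Glucosamine-6-phosphate (40 μM to 10 mM) in HEPES/KCl/Mg(OAc)2 buffer was flowed in. Weighted Michaelis–Menten fits across concentrations then gave kcat and KM.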

| Variant | self-cleavage kobs at 2500 uM GlcN6P [s⁻¹] |
| --- | --- |
| G41A U47G C70G | 9.9e-05 ± 3.6e-05 |
| G29C C58G G59C C61A G63A | < 1e-05 |
| A12G G29U C58A G59U C67A | < 1e-05 |
| G21U A64U | 0.000111 ± 2.9e-05 |
| C10A A12C U30A U31A | 5.52e-05 ± 2.3e-05 |
| A33U A48U G62U | < 1e-05 |
| C16U G38A G66A | < 1e-05 |
| A6C C34A A39G U45A | < 1e-05 |
| G7U G13A G38U A52C A53C | < 1e-05 |
| G35C C50A A52U | < 1e-05 |
| A12G A48C C50U | < 1e-05 |
| A14U U47A C71G | 0.000172 ± 6.8e-05 |
| G7U G32U U54C C68G | < 1e-05 |
| U45A U54G C68G | 9.7e-05 ± 3.2e-05 |
| A6U A14U G29A C34G G63A | < 1e-05 |
| G13C A14G U46A | 5.24e-05 ± 1.3e-05 |
| G32C G41A G63A C70U | < 1e-05 |
| A33G U46G C70U | < 1e-05 |
| A39U G41U U46A | 4.67e-05 ± 1.4e-05 |
| U31A A36U G59A | < 1e-05 |
| G29C G41A | 7.06e-05 ± 3.1e-05 |
| C10U U31A A39U G51C | < 1e-05 |
| A33C A53C C61G | < 1e-05 |
| C11G A12C G38U C50U | < 1e-05 |
| C8U U55G C61U C68A | < 1e-05 |
| C8U G37U U54G | < 1e-05 |

| Variant | self-cleavage kobs at 2500 uM GlcN6P [s⁻¹] |
| --- | --- |
| A39U U47C U56A | 0.00121 ± 0.00039 |
| A42U U45A U49G | < 1e-05 |
| G29A G60U C71A | < 1e-05 |
| A14C A39U G41U U65G | < 1e-05 |
| A6C G37C | < 1e-05 |
| C8A C10U A39G U57C | < 1e-05 |
| A6U U31C C50A U56G | < 1e-05 |
| U31A C34G A48G | < 1e-05 |
| C50A U55A C70U | 5.24e-05 ± 2.1e-05 |
| C11G G13A G44A | < 1e-05 |
| C11U A48C G62U | < 1e-05 |
| A6U A36C U55G | < 1e-05 |
| A14G C16U A53U | 0.0165 ± 0.0044 |
| C16A G38C G40C G44U C67A U69C | < 1e-05 |
| U31C G38U A53U | < 1e-05 |
| C34G A36U G40A A64C C71G | < 1e-05 |
| U30G G40C U46G | 4.32e-05 ± 1.4e-05 |
| G29A G63A | < 1e-05 |
| C16A G29A C70A | 6.39e-05 ± 2.4e-05 |
| C10U G26A | 7.4e-05 ± 2.8e-05 |
| A15U G44C A64G | < 1e-05 |
| A15G G32C G37U C70A | 0.000633 ± 0.00028 |
| A36C A52G C61G | < 1e-05 |
| A53U U54C U57C C61G | < 1e-05 |
| C11U U49C G63C | < 1e-05 |
| G29C G59U G66C C70A | 0.000112 ± 2.7e-05 |

| Variant | self-cleavage kobs at 2500 uM GlcN6P [s⁻¹] |
| --- | --- |
| G41A U45A C71U | 9.76e-05 ± 2.1e-05 |
| U49G A53G U69G | 4.58e-05 ± 1.6e-05 |
| A14C G21U G26U A36C | < 1e-05 |
| G7A G44U A48G | < 1e-05 |
| A33U A42G C61A G66A | < 1e-05 |
| A15G C16U U31A A39C | 0.000142 ± 2.8e-05 |
| C16G G37U A42G | < 1e-05 |
| A14U C16G U65A | 5.56e-05 ± 1.9e-05 |
| G40C A52G G60A | < 1e-05 |
| U30C G63A U69G | 8.06e-05 ± 3.9e-05 |
| A39U U49A U56G | < 1e-05 |
| C8G A33C C34U U46G U65C | < 1e-05 |
| A12G U46G C71A | 5e-05 ± 2e-05 |
| A6G U54G C70U | 0.0001 ± 2.2e-05 |
| A6C A12G A53U | < 1e-05 |
| U47A U56G C68A | 7.37e-05 ± 3.6e-05 |
| G41U A52U U55A C70U | 6.63e-05 ± 1.6e-05 |
| G44U A52G C67U U69G | < 1e-05 |
| G13C G35U A52C | < 1e-05 |
| C11A C34A C58U C61G G62A | < 1e-05 |
| C10G A12U G13C G32A | < 1e-05 |
| G13U A42U C50U | < 1e-05 |
| U57C C58A C67G | 0.000113 ± 5.6e-05 |
| G38A G40A G44U G60C | < 1e-05 |
| G26U A33U | 0.000111 ± 2.1e-05 |
| A6G U30A A39G | 8.54e-05 ± 2.8e-05 |

Variants of: B1
Test: self-cleavage kobs at 10000 uM GlcN6P; higher = faster cleavage; RNA array
Conditions: with glucosamine-6-phosphate
Summary of the method: as §1

| Variant | self-cleavage kobs at 10000 uM GlcN6P [s⁻¹] |
| --- | --- |
| G7U G13A G38U A52C A53C | < 1e-05 |
| G7U G32U U54C C68G | < 1e-05 |
| A33G U46G C70U | < 1e-05 |
| A39U G41U U46A | 0.000135 ± 2.6e-05 |
| G29C G41A | 5.29e-05 ± 2.1e-05 |
| A14C A39U G41U U65G | < 1e-05 |
| A6C G37C | < 1e-05 |
| A39U U49A U56G | < 1e-05 |
| G41U A52U U55A C70U | 9.97e-05 ± 2.6e-05 |
| G13U A42U C50U | < 1e-05 |
